Experimental data taken from JP2005027671A (dated 2005).
One block for each binder: values may come before it.

Key:
[1] = biological target: T1, 可溶性ヒトVEGF受容体KDR 7N (human, UniProt P35968 20-757); experiment: ELISA, coated antigen from 10 ug/ml in 3-fold dilutions
T1 construct: range 1-738; The range 1-738 counts on the mature protein (after the 19-residue signal peptide)

[2] = biological target: T1, 可溶性ヒトVEGF受容体KDR 7N; experiment: ELISA, coated antigen 4 ug/ml
[3] = biological target: T2, 可溶性ヒトVEGF受容体Flt-1 7N (human, UniProt P17948 27-750); experiment: inhibition of 125I-VEGF binding to coated Flt-1 7N, purified antibody
T2 construct: range 1-750; also called 可溶性ヒトFlt-1 7N

[4] = biological target: T3, ヒトVEGF受容体Flt-1(細胞表面発現) (human, UniProt P17948 27-1338); experiment: inhibition of 125I-VEGF binding to NIH3T3-Flt-1 cells, purified antibody
T3 construct: whole, on cells; also called NIH3T3-Flt-1細胞; ヒトVEGF受容体Flt-1発現NIH3T3細胞

[5] = biological target: T1, 可溶性ヒトVEGF受容体KDR 7N; experiment: ELISA, coated antigen 4 ug/ml, antibody titrated

T1 sequence (P35968 20-757): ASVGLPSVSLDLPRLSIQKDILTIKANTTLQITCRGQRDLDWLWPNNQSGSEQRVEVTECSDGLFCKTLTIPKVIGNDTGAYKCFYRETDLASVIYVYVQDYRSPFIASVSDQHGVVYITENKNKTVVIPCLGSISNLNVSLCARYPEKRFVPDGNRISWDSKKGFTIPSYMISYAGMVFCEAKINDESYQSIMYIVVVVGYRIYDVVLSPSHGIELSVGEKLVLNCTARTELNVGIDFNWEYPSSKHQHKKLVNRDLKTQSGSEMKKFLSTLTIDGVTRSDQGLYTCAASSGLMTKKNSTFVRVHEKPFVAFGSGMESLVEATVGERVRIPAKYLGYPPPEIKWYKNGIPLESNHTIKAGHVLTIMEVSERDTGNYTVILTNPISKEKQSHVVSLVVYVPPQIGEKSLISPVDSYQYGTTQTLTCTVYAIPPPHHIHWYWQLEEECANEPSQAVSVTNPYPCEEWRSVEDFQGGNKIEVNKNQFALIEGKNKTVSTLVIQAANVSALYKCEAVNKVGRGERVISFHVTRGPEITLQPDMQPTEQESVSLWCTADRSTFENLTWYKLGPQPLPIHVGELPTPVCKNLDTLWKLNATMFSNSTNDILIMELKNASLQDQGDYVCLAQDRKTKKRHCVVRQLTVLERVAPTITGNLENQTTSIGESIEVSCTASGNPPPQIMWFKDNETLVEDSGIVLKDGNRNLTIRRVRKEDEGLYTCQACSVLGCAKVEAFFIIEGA

B1: 抗ヒトVEGF受容体Flt-1ヒト型CDR移植抗体KM8550 (antibody, V domains shown)
VH: QVQLVQSGAEVKKPGASVKVSCKASGYTFINYNMHWVRQAPGQGLEWMGAIFPGNGFTSYNQKFKGRVTITVDKSTSTAYMELSSLRSEDTAVYYCARDGDYYFDYWGQGTLVTVSS
VL: DIQMTQSPSSLSASVGDRVTITCSASSSVSYMHWYQQKPGKAPKLLIYRTSNLASGVPSRFSGSGSGTDFTLTISSLQPEDFATYYCHQWSMYTFGQGTKVEIK
notes: CDR-grafted IgG derived from KM1750; also called pKANTEX1750HV0LV0(I); 1750HV0 + 1750LV0(I)
- binding result [1]: no binding (tested: 5μg/ml)

B2: 抗ヒトVEGF受容体Flt-1ヒト型CDR移植抗体KM8551 (antibody, V domains shown)
VH: QVQLVQSGAEVKKPGASVKVSCKASGYTFINYNMHWVRQAPGQGLEWMGAIFPGNGFTSYNQKFKGRVTITVDKSTSTAYMELSSLRSEDTAVYYCARDGDYYFDYWGQGTLVTVSS
VL: DIVMTQSPDSLAVSLGERATINCSASSSVSYMHWYQQKPGQPPKLLIYRTSNLASGVPDRFSGSGSGTDFTLTISSLQAEDVAVYYCHQWSMYTFGQGTKVEIK
notes: CDR-grafted IgG derived from KM1750; also called pKANTEX1750HV0LV0(IV); 1750HV0 + 1750LV0(IV)
- binding result [1]: no binding (tested: 5μg/ml)

B3: 抗ヒトVEGF受容体Flt-1ヒト型CDR移植抗体KM8552 (antibody, V domains shown)
VH: QVQLVQSGAEVKKPGASVKVSCKASGYTFINYNMHWVRQAPGQGLEWMGAIFPGNGFTSYNQKFKGRVTITVDKSTSTAYMQLRSLRSEDTAVYFCARDGDYYFDYWGQGTLVTVSS
VL: DIQMTQSPSSLSASVGDRVTITCSASSSVSYMHWYQQKPGKAPKLLIYRTSNLASGVPSRFSGSGSGTDFTLTISSLQPEDFATYYCHQWSMYTFGQGTKVEIK
notes: CDR-grafted IgG derived from KM1750 with modified VH framework; also called pKANTEX1750HV3LV0(I); 1750HV3 + 1750LV0(I)
- binding result [1]: no binding (tested: 5μg/ml)

B7: 抗ヒトVEGF受容体Flt-1マウスモノクローナル抗体KM1750 (antibody, V domains shown)
VH: QAFLQQSGAELVRPGASVKMSCKASGYTFINYNMHWVKQTPRQGLEWIGAIFPGNGFTSYNQKFKGKATLTVDKSSSTVYMQLRSLTSEDSAVYFCARDGDYYFDYWGQGTTLTVSS
VL: QIVLTQSPAIMSASLGEEITLTCSASSSVSYMHWYQQKSGTSPKLLIYRTSNLASGVPFRFSGSGSGTFYSLTISSVEAEDAADYYCHQWSMYTFGGGTKLEIK
notes: cDNAs were cloned with mouse Cgamma1 and Ckappa probes; also called FERM BP-5700
- binding result [2]: no binding (tested: 0.1μg/ml)
- IC50 [3]: 2 µg/mL
- IC50 [4]: 0.041 µg/mL

B8: 抗ヒトVEGF受容体Flt-1ヒト型キメラ抗体KM2550 (antibody, V domains shown)
VH: QAFLQQSGAELVRPGASVKMSCKASGYTFINYNMHWVKQTPRQGLEWIGAIFPGNGFTSYNQKFKGKATLTVDKSSSTVYMQLRSLTSEDSAVYFCARDGDYYFDYWGQGTTLTVSS
VL: QIVLTQSPAIMSASLGEEITLTCSASSSVSYMHWYQQKSGTSPKLLIYRTSNLASGVPFRFSGSGSGTFYSLTISSVEAEDAADYYCHQWSMYTFGGGTKLEIK
notes: Expressed in YB2/0 cells; also called pKANTEX1750
- binding result [5]: no binding (tested: 0.0152〜100ng/ml)

B9: 抗ヒトVEGF受容体Flt-1マウスモノクローナル抗体KM1732 (antibody, V domains shown)
VH: QGQMQQSGAELVKPGASVKLSCKPSGFTFSSNYISWLKQKPGQSLEWIAWIYAGTGDASYNQKFTAKAHVTVDTSSSTAYMQLSSLTTEDSAIYYCARHGGDGYWFAYWGQGTLVTVSA
VL: QLVLTQSPAIMSASQGEKVTMTCSASSSVSYMHWYQQKSGTSPKRWIYDTSKLPSGVPARFSGSGSGTSYSLTISSMEAEDAATYYCQQWSSNPPTFGAGTKLELK
notes: Mouse hybridoma IgG (Balb/c mouse immunised with Flt-1 7N, screened on Flt-1 3N); cDNAs were cloned with mouse Cgamma1 and Ckappa probes; also called FERM BP-5698
- binding result [2]: no binding (tested: 0.1μg/ml)
- IC50 [3]: 1.1 µg/mL
- IC50 [4]: 0.05 µg/mL

B10: 抗ヒトVEGF受容体Flt-1ヒト型キメラ抗体KM2532 (antibody, V domains shown)
VH: QGQMQQSGAELVKPGASVKLSCKPSGFTFSSNYISWLKQKPGQSLEWIAWIYAGTGDASYNQKFTAKAHVTVDTSSSTAYMQLSSLTTEDSAIYYCARHGGDGYWFAYWGQGTLVTVSA
VL: QLVLTQSPAIMSASQGEKVTMTCSASSSVSYMHWYQQKSGTSPKRWIYDTSKLPSGVPARFSGSGSGTSYSLTISSMEAEDAATYYCQQWSSNPPTFGAGTKLELK
notes: Expressed in YB2/0 cells; also called pKANTEX1732
- binding result [5]: no binding (tested: 0.0152〜100ng/ml)

Now from value to binder:

- binding result [1]: no binding (tested: 5μg/ml)
B4: 抗ヒトVEGF受容体Flt-1ヒト型CDR移植抗体KM8555 (antibody, V domains shown)
VH: QVQLVQSGAEVKKPGASVKVSCKASGYTFINYNMHWVRQAPGQGLEWMGAIFPGNGFTSYNQKFKGRVTITVDKSTSTAYMQLRSLRSEDTAVYFCARDGDYYFDYWGQGTLVTVSS
VL: DIQMTQSPSSLSASVGEEVTITCSASSSVSYMHWYQQKPGKAPKLLIYRTSNLASGVPSRFSGSGSGTFYTLTISSLQPEDFATYYCHQWSMYTFGQGTKVEIK
notes: CDR-grafted IgG derived from KM1750 with modified VH and VL frameworks; also called pKANTEX1750HV3LV4; 1750HV3 + 1750LV4

- binding result [1]: no binding (tested: 5μg/ml)
B5: 抗ヒトVEGF受容体Flt-1ヒト型CDR移植抗体KM8553 (antibody, V domains shown)
VH: QVQLVQSGAEVKKPGASVKVSCKASGYTFINYNMHWVRQAPGQGLEWMGAIFPGNGFTSYNQKFKGRVTITVDKSTSTAYMQLRSLRSEDTAVYFCARDGDYYFDYWGQGTLVTVSS
VL: DIVMTQSPDSLAVSLGERATINCSASSSVSYMHWYQQKPGQPPKLLIYRTSNLASGVPDRFSGSGSGTDFTLTISSLQAEDVAVYYCHQWSMYTFGQGTKVEIK
notes: CDR-grafted IgG derived from KM1750 with modified VH framework; also called pKANTEX1750HV3LV0(IV); 1750HV3 + 1750LV0(IV)

- binding result [1]: no binding (tested: 5μg/ml)
B6: 抗ヒトVEGF受容体Flt-1ヒト型CDR移植抗体KM8554 (antibody, V domains shown)
VH: QVQLVQSGAEVKKPGASVKVSCKASGYTFINYNMHWVRQAPGQGLEWMGAIFPGNGFTSYNQKFKGRVTITVDKSTSTAYMELSSLRSEDTAVYYCARDGDYYFDYWGQGTLVTVSS
VL: DIQMTQSPSSLSASVGEEVTITCSASSSVSYMHWYQQKPGKAPKLLIYRTSNLASGVPSRFSGSGSGTFYTLTISSLQPEDFATYYCHQWSMYTFGQGTKVEIK
notes: CDR-grafted IgG derived from KM1750 with modified VL framework; also called pKANTEX1750HV0LV4; 1750HV0 + 1750LV4
